Assay: yeast display, Sf9 membrane polyspecificity reagent, FACS + sequencing; frameworks hold sequencing errors
In short: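 Polyreactivity labels are assigned by the sorting gate from which each nanobody was recovered. The gates were low and high (top ~1%), set on anti-HA fluorescence for expression and streptavidin fluorescence for reagent binding. Before sorting, galactose-induced (36–48 hours) yeast display cells were stained for 1 hour at 4 °C with 10% biotinylated, detergent-solubilized Sf9 membrane reagent.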
In the case of “QVQLVESGGGLVQAGGSLRLSCAASGRIFYQNPMGWYRPAPGKERELVADISSGGSTYYADSVKGRFTISRDNAKNTVYLQMNSLKPEDTAGYYCNTPSGPGTVGSYRRIWYGYWGQGSQVTVSS”, the “polyreactivity (PSR sort gate)” value is reported as “low polyreactivity”.
For “QVQLVESGGGLVQAGGSLRLSCAASGITFGVNAMGGSRQAPGKERELVAAITQRGDSTYYADSVKGRFTISRDTAKNTLDLQMNSLKPEDTAVYYCNADYAWRFPVTYDYWGQGTQVTVSS”, the “polyreactivity (PSR sort gate)” value was “low polyreactivity”.
In the case of “KVQLVESGGGLVQAGGSLLLSCAASVSNYTLNAMGWYRQAPGKERVLVAAISLSGGSTYYADSVKGRFTISRDNAKNTVYLQMNSLKPEDTAVYYCNTPPSRYVRYGIYRYDYWGQGTQVTVSS”, the “polyreactivity (PSR sort gate)” value is reported as “high polyreactivity”.
For “QVQLVESGGGLVQAAGSLRLSCAASGFIFQAYAMGWYRQAPGKERELVAAISSSGGSTYYADSVKGRFTISRDNAKYTVYLKRNILKPEDTAVYYCAARSRRVSLLSESYGYWGQGTQVTVSS”, the “polyreactivity (PSR sort gate)” value was “high polyreactivity”.
With “QVQLLESGGGLVQAGGSLRLSFAASGLTLGAYAMVWYRQAPGKERELVAAITNGGSTDYADSVKGRFTISRDNAKITVYLQMNSLKPEDTAVYYCAKDISRPDRGMDYWGQGTQVTVSS” the “polyreactivity (PSR sort gate)” value was “low polyreactivity”.
In the case of “QFHLVESGRGLVQAGGSLRLSCAASGRIFCVNAMGWYRQAPGKERELVADISSGGSTNYADSVKGRFTISRDNAKNTVYLQMNSLKPEDTAFYYCNARFRFRYKFPSRNSWGQGTLVTVSS”, the “polyreactivity (PSR sort gate)” value is reported as “high polyreactivity”.
For “QVQLVESGGGLVQAGGSLRLSCAASGLIFRAYAMGWYRQAPGKERELVAAITRSGGRTYYADSVKGRFTISRDNAKNTVYLQMNSLTPEDTAVYYCAAEYGNTYSSYTYDYWGQGTQVTVSS”, the “polyreactivity (PSR sort gate)” value was “high polyreactivity”.
In the case of “QVQLVESGGGLVQAGGSLRLSCAASGFIFTIYVMGWYRQAPGKERELVAAISKSVGRTYYADSVKGRFTISRDNAKNTVYLQMNSLKPEDTAVYYCAAVYVKYYGGSYDYWGQGTQVTVSS”, the “polyreactivity (PSR sort gate)” value is reported as “high polyreactivity”.
With “QVQLVESGGGLVQAGGSLRLSCAASGSTFVWNAMGWYRQAPGKERELVASISSSGDRTYYADSVKGRFTISRDNAKNTVYLQMNSLKPEDTAVYYCAARYTRADYDYLGQGTQVTVSS” the “polyreactivity (PSR sort gate)” value was “high polyreactivity”.
With “QVQLVESGGGLVQAGGSLRLSCAASGSTSHQYAMGWYRQAPGKERELVAAISSRAGSTYYADSVKGRFTISRDNAKNTVYLQMNSLKPEDTAFYYCAADADSWKWGYDYWGQGTQVTVSS” the “polyreactivity (PSR sort gate)” value was “low polyreactivity”.
In the case of “QVQLVESGGCLVQAGGSLRLSCPASGNNFTAYAMGWYRQAPAKERELVAAISSSGRTNYADSVKGRFTISRDNAKNTVYLQMNSLKPEDTAVYYCAAYRLSNPFYKYDYWGQGTQVTVSS”, the “polyreactivity (PSR sort gate)” value is reported as “high polyreactivity”.
For “QVQLVESGGGLVQAGGSLRLSCDASGLTFPSYAMGWYRQAPGKERELVAAISSGDSTNYADSVKGRFTISRDNAKNTVYLQMNSLKPEDTAVYYCAVGLPHGGRRLYGSWYRFDYWGQGTQVTVSS”, the “polyreactivity (PSR sort gate)” value was “low polyreactivity”.
In the case of “QDQLVESGGGLVQAGGSLRLSCAASGFTFNTYAMGWNRQAPGKERELVDAISKSGTRTYYADSVKGRFTISRDNAKNTVYLQMKSLKPEVTAVYYCAAEALYYYRLGWVYLRYDYWGQGTQVTVSS”, the “polyreactivity (PSR sort gate)” value is reported as “high polyreactivity”.
With “QVQLVESGGGLVQAGGSLRLSCAASGSTFPLYAMGWYRQAPGKERELVAAITTGGGNTYYADSVKGRFTISRDNAKNTVYLQLNSLTPEDTAVYYCAKPYHIGLSGRRTYDYWGQGTQVTVSS” the “polyreactivity (PSR sort gate)” value was “high polyreactivity”.
In the case of “QVQLVESGGGLVQAGGSLRLSCAASGFIFRWNAMGWYRQAPGKERELVAAITSGGGTNYADSVKGRFTISRDNAKNTVYLQMNSLKPEDTAVYYCNASYRRYSNYYKYGYWGQGTQVTVSS”, the “polyreactivity (PSR sort gate)” value is reported as “high polyreactivity”.
For “QVQLVESGGGLVQAGGSLRLSCAASGFIFRYNAMGWYRQAPGKERELVAAISSSGTTNYADSVKGRFTISRDNAKNTVYLQMNSLKPEDTAVYYCAADRRDRSPYYYWGQGTQVTVSS”, the “polyreactivity (PSR sort gate)” value was “high polyreactivity”.
For “QVQLVESGGGLVQAGGSLRLSCAASGSTLDVYAMGWYRQAPGKERELVAAITVRATSTYYADSVKGRFTISRDNAKNTVYLQMNSQKPEDTAVYYCDARYEFFYKAFDVDSWGQGTQVTVSS”, the “polyreactivity (PSR sort gate)” value was “low polyreactivity”.
With “QVQLVESGGGLVQAGGSLRLSCAASGYTFEAYAMGWYRQAPGKERELVAAINYSGGSTYADSVKGRFTISRDNAKNTVYLQMNSLKPEDTAVYYCAAYGTKRYPYDYWGQGTQVTVSS” the “polyreactivity (PSR sort gate)” value was “low polyreactivity”.
In the case of “QVQLVESGGALVQAGGSLRLSCAASGIIFYSYAMGWYRQAPGKERELVAAISNNGGSTYADSVKGRFTISRDNAKNSVYLQMKSVKPEDTAVYYCAADPTGGVGFDGYYWGQGTQVTVSS”, the “polyreactivity (PSR sort gate)” value is reported as “low polyreactivity”.
In the case of “QVQLVESGGGLVQAGGSLRLSCAASGSTFDVYTMGWYRQAPGKERELVATISGDDGSTYYADSEKGRFTISRDNAKNTVSLQMNSLKPEDTAVYYCAADYGGFPNYYSTGDYWGQGTQVTVSS”, the “polyreactivity (PSR sort gate)” value is reported as “low polyreactivity”.
In the case of “QLQLVESGGGLVQAGGSLRLSCAASGRTFYVNAMGWYRQAHGKERELVARISSSGITYYAVSVKGRFTISRDNAKNTVYLQMNSLKPEDTAVYYCAAGPWFYYWGQGTQVTVSS”, the “polyreactivity (PSR sort gate)” value is reported as “low polyreactivity”.
In the case of “QVQLVESGGGLVQAGGSLRLSCAASGFTFGVNAMGWYRQAPGKERELVAVITSGGNTYYADSVKGRFTISRDNAKNTVYLQMNSLKPEDTAVYYCAADLSDTSYATRYQGDYWGQGTQVTVSS”, the “polyreactivity (PSR sort gate)” value is reported as “low polyreactivity”.
For “QVQLVESGGGLVQAGGSLRLSCAASGRIFRYYAMGWYRQAPGKEREFVAAITYIGGSTYYADSVKGRFTISRDNAKNTVYLQMNSLKPEDTAVYWGQGTQVTVSS”, the “polyreactivity (PSR sort gate)” value was “low polyreactivity”.
In the case of “QVQLQESGGGLVLAGGSLRLSCSASGNISVYGSMGWYRQAPGKEREFVATIAPGTNTNYADSVKDRFTISRDNAKNTVYLQMNSLKPEDTAVYYCAARHPSSAYWVGYYWYDYWGQGTQVTVSS”, the “polyreactivity (PSR sort gate)” value is reported as “low polyreactivity”.
For “QVQLVESGGGLVQAGGSLRLSCAASGRTFKIYTMGWYRPAPGKERELVAAISRGGSTYYADSVKGRFTISRDNAKNTVYLQMNSLKPEDTAVYYCAVDLYYLSSASTRQVRRDYWGQGTQVTVSS”, the “polyreactivity (PSR sort gate)” value was “high polyreactivity”.
In the case of “QVQLVESVGGLVQAGGSLRLSCAASVRTCRSNAMGWYRKAPGKEMEFVAAISISGTRTNYADSVKGRFTISRDNAKITVYLQMNSLKPEDTAVYYCARRYQIYDFFYHDLYDYWGQGTQVTVSS”, the “polyreactivity (PSR sort gate)” value is reported as “low polyreactivity”.
For “QVQLVESGGGLVQAGGSLRLSCAASGSIFAKYAMGWYRQAPGKERELVAAITSSGDSTNYADSVKGRFTISRDNAKNTVYLQMNSLKPEDTAVYYCAADDQYGYVYYAFWGYDYWGQGTQVTVSS”, the “polyreactivity (PSR sort gate)” value was “low polyreactivity”.
With “QVQLVDSGGGLVQAGGSLSLSCAASGSIFNVYGMGWYRQAPGKERELVARINSRGGITYYADSVKGRFTISRDNAKNTVYLQMNSLKPEDTAVYYCATDTQDLQGYSWFDYWGQGTQVTVSS” the “polyreactivity (PSR sort gate)” value was “high polyreactivity”.
With “QVQLVESGGGLVQAGGSLRLSCAASGNIFRYNARGWYRKAPGKERELVAAISSVGTTNSADSVKGRFTSSRDNAKNTFYLQMNSLKPEDTAVYYCNAAWSSYLSGGYESWGQGTQVTVSS” the “polyreactivity (PSR sort gate)” value was “low polyreactivity”.
With “QVQLVESGGGLVQAGGSLRLSCAASGFIFGKFAMGWYRPAPGKERELVAAITSDGRTYYADSVKGRFTISRDNAKNTVYLQMNSLKPEDTAVYYCAVDYYWYWYSGYDDYWGQGTQVTVSS” the “polyreactivity (PSR sort gate)” value was “high polyreactivity”.
In the case of “QLHLVESGGGLVQAGGSLRLSCAASGYIFNYNAMGWSRQAPGTQREFVAAISQGGGSTYYADSVKGRFTISRDNSKYTVYLQMNRLKPEDTAVYYCAADYRSGYREMDYWGQGTQVTVSS”, the “polyreactivity (PSR sort gate)” value is reported as “low polyreactivity”.
In the case of “QVQLVSGGGLVQAGGSLRLSCAASGRIFGTYAMGWYRQAPGKERELVAAITSGGSTYYADSVKGRFTISRDNAKNTVYLQMNSLKPEDSAVYYCAAEYAIWTHWGRYVTGNYWGQGTQVTVSS”, the “polyreactivity (PSR sort gate)” value is reported as “high polyreactivity”.
In the case of “QVQLVESGGGLVQAGGSLRLSCAASGRTFWNYAMGWYRQAPGKERELVAVIRFSDGSTYYADSVKGRFTISRDNAKNTVYLQMNSLKPEDTAVYYCAADDLLDYDYWGQGTQVTVSS”, the “polyreactivity (PSR sort gate)” value is reported as “low polyreactivity”.
In the case of “QVQLVESGGGLVQAGGSLRLSCSASGRTFSAYAMGWDRPAPGKERELVARITSVDSTNYADSVKGRFTISRDNAKNSVYLKMNSLTPEDTAVYYCNATFCYPFFDYDDYWGQGTQVTVSS”, the “polyreactivity (PSR sort gate)” value is reported as “low polyreactivity”.
For “QVQLVESGGGLVQAGASLRISCAASGNILPVYAMGWYRQAPGKEREFVAAITSRGGSTYYADSVKGRFTISRDNAKNTVYLQMNSLKPEDTAVYYCAAKYLRAYGYWGQGTQVTVSS”, the “polyreactivity (PSR sort gate)” value was “high polyreactivity”.
With “QVQLVESGGGLVQAGGSLRLSCAASGSIFGWYVMGWYRQAPGKERELVAAISSVGSTYYADSVKGRFTISRDNAKNTVYLQMNSLKPEDTAVYYCAKLRYPYLFWDDSEYWGQGTQVTVSS” the “polyreactivity (PSR sort gate)” value was “low polyreactivity”.
In the case of “QVQLVESGGGLVQAGGSLRLSCAASGLTFGWNAMGWYRQAPGKERESVAAISYNGVSTHYADSVKGRFTISRDNAKNTVYLQMNSLKPEDTAVYYCAARALTWPYGGTAPRLYNYWGQGTQVTVSS”, the “polyreactivity (PSR sort gate)” value is reported as “low polyreactivity”.
With “QVQLVESGGGLVQAGGSLRLSCAASGSTFDTYAMGWSRPAPGKERELVAAITSGSSTNYADSVKGRFTISRDNAKNTVYLQMNSLKPEDTAVYYCAALGYNVSSRGYYYWGQGTQVTVSS” the “polyreactivity (PSR sort gate)” value was “low polyreactivity”.
With “QVQLVESGGGLVQAGGSLRLSCAASGRTFTYYAMGWYRQAPGKERELVATIRSGGTTNYADSVKGRFTISRDNAKNTVYLQMNSLKPEDTAVYYCARVLSYVWYYRDPYQYPDYDYWGQGTQVTVSS” the “polyreactivity (PSR sort gate)” value was “low polyreactivity”.
For “QVQLVESGGGLVQAGGSLRLSCAASGSTSYWYAMGWYRQAPGKERELVAAISSDDSTHYADSVKGRFTISRDNAKNTVYLQMNSLKPEDTAVYYFNREHYLIRYDYWGQGTQVTVSS”, the “polyreactivity (PSR sort gate)” value was “low polyreactivity”.
For “QVQLVESGGGLVQAGGSLRLSCAASGNIFILNAMGWYRQAPGKERELVAAISTTGGSTYYADSVKGRFTISRDNAKNTVYLQMNSLKPEDTAVYYCAAYTYRYSTFYYWGQGTQVTVSS”, the “polyreactivity (PSR sort gate)” value was “high polyreactivity”.
For “QVQLVESGGGLVQAGGSLRLSCAASGSIFEWYAMGWYRQAPGKERELVADITYNGGSTYYADSVKGRFTISRDNAKNTVYLQMNSLKPEDTAVYYCAADYFVQVPDYYYASEYGYWGQATQVTVSS”, the “polyreactivity (PSR sort gate)” value was “low polyreactivity”.
In the case of “QVQLVESGGGLVQAGGSLRLSCAASGITFYYYAKGWYRQAPGKERELVSAISFRGGSTYYADSVKGRFTISRDNAKNSVYLQMNSLKPEDTAVYYCAAETSRSWYTWVSYDYWGQGTQVNVSS”, the “polyreactivity (PSR sort gate)” value is reported as “high polyreactivity”.
